# Experimental data as given in publication doi:10.1101/2021.12.20.473401.
# Target: SARS-CoV spike glycoprotein (S) (SARS-CoV) (UniProt P59594)
# Experiment: SPR
substance,measurement,value
VHH-72,Kd,6.52 nM
